The mark [1] stands for this setting: Oryctolagus cuniculus, pH 7, Thermal, DSC, Glycerol 20 % v/v, KCl 100 mM, reversible: no, whole UniProt chain shown.
Where [2] appears, read: Escherichia coli (strain K12), pH 7.2, 51.8 °C, Thermal, DSC, HEPES 0.05 mM, structure 1ANK.
Setting [3] is: Escherichia coli (strain K12), pH 7.2, Thermal, DSC, HEPES 0.05 mM, structure 1ANK.
The mark [4] stands for this setting: Escherichia coli (strain K12), pH 7.4, Thermal, DSC, HEPES 50 mM, structure 1ANK.
The mark [5] stands for this setting: Escherichia coli (strain K12), pH 7.2, Thermal, DSC, HEPES 0.05 mM.
The mark [6] stands for this setting: Escherichia coli (strain K12), pH 7.4, Thermal, DSC, HEPES 50 mM.
Setting [7] is: Methanobacterium formicicum, pH 7.2, 25 °C, GdnHCl, CD, potasssium phosphate 20 mM, KCl 200 mM, reversible: yes.
Setting [8] is: Escherichia coli (strain K12), pH 7, 10 °C, Urea, CD, Potassium phosphate 50 mM, KCl 100 mM.
Where [9] appears, read: Escherichia coli (strain K12), pH 7, 25 °C, GdnHCl, Fluorescence, potassium phosphate 50 mM, KCl 100 M, reversible: yes.
[10] abbreviates: Escherichia coli (strain K12), pH 7, 25 °C, Urea, CD, Potassium phosphate 50 mM, KCl 100 mM.
The mark [11] stands for this setting: Escherichia coli (strain K12), pH 7, 25 °C, Urea, Fluorescence, potassium phosphate 50 mM, KCl 100 mM, reversible: yes.
The mark [12] stands for this setting: Gallus gallus, pH 7, 25 °C, NaClO4 titration, CD, PIPES 10 mM, NaCl 50 mM, reversible: no.
Setting [13] is: Saccharomyces cerevisiae (strain ATCC 204508 / S288c), pH 6, 46.5 °C, Thermal, Absorbance, Sodium phosphate 100 mM, reversible: yes, structure 1YCC.
Setting [14] is: Saccharomyces cerevisiae (strain ATCC 204508 / S288c), pH 6, Thermal, Absorbance, Sodium phosphate 100 mM, reversible: yes, structure 1YCC.
The mark [15] stands for this setting: Saccharomyces cerevisiae (strain ATCC 204508 / S288c), pH 7.5, 22 °C, GdnHCl, CD, Tris 20 mM, NaCl 40 mM, structure 1YCC.
[16] abbreviates: Saccharomyces cerevisiae (strain ATCC 204508 / S288c), pH 4.6, 37 °C, Thermal, DSC, Potassium acetate 0.1 M, reversible: yes, structure 1YCC.
Setting [17] is: Saccharomyces cerevisiae (strain ATCC 204508 / S288c), pH 6, 20 °C, GdnHCl, Fluorescence, Sodium phosphate 0.1 M, reversible: yes, structure 1YCC.
The mark [18] stands for this setting: Saccharomyces cerevisiae (strain ATCC 204508 / S288c), pH 6, 20 °C, GdnHCl, Fluorescence, Sodium phosphate 0.1 M, reversible: yes.
[19] abbreviates: Saccharomyces cerevisiae (strain ATCC 204508 / S288c), pH 7, 25 °C, GdnHCl, CD, Tris 20 mM, NaCl 40 mM, reversible: yes.
The mark [20] stands for this setting: Saccharomyces cerevisiae (strain ATCC 204508 / S288c), pH 7.5, 22 °C, GdnHCl, CD, Tris 20 mM, NaCl 40 mM.

“And” between values parts separate entries of the source, which are not always exact repeats. Equal values may be shown once.

Archaeal histone B wild type, P48784, sequence (P48784 whole entry): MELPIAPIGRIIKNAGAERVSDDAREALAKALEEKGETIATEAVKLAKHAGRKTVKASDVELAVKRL
Cytochrome c isoform 1 P77T, P00044, sequence (P00044 whole entry P77T, canonical isoform): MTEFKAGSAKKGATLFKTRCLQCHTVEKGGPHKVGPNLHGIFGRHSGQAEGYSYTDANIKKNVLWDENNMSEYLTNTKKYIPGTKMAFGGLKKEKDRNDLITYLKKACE
Cytochrome c isoform 1 C108S, P00044, sequence (P00044 whole entry C108S, canonical isoform): as the sequence (P00044 whole entry P77T, canonical isoform) above, with T77P, C108S counted along it
Cytochrome c isoform 1 N58I|C108A, P00044 N58I C108A, sequence (P00044 whole entry N58I/C108A, canonical isoform): as the sequence (P00044 whole entry P77T, canonical isoform) above, with N58I, T77P, C108A counted along it
Cytochrome c isoform 1 wild type, P00044, sequence (P00044 whole entry, canonical isoform): as the sequence (P00044 whole entry P77T, canonical isoform) above, with T77P counted along it
Cytochrome c isoform 1 P77I, P00044, sequence (P00044 whole entry P77I, canonical isoform): as the sequence (P00044 whole entry P77T, canonical isoform) above, with T77I counted along it
Adenylate kinase wild type, P69441, sequence (P69441 whole entry): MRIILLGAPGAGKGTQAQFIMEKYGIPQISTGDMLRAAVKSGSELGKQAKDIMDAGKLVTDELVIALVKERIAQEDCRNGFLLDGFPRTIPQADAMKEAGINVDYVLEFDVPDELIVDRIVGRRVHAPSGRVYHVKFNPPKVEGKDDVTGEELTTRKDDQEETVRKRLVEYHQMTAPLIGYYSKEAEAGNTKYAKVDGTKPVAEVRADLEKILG
Cytochrome c isoform 1 N58I, P00044, sequence (P00044 whole entry N58I, canonical isoform): as the sequence (P00044 whole entry P77T, canonical isoform) above, with N58I, T77P counted along it
Cytochrome c isoform 1 N58G|C108A, P00044 N58G C108A, sequence (P00044 whole entry N58G/C108A, canonical isoform): as the sequence (P00044 whole entry P77T, canonical isoform) above, with N58G, T77P, C108A counted along it
Cytochrome c isoform 1 H32N|H39N|H45Q|C108S, P00044 H32N H39N H45Q C108S, sequence (P00044 whole entry H32N/H39N/H45Q/C108S, canonical isoform): as the sequence (P00044 whole entry P77T, canonical isoform) above, with H32N, H39N, H45Q, T77P, C108S counted along it
Cytochrome c isoform 1 H39P|N58I, P00044 H39P N58I, sequence (P00044 whole entry H39P/N58I, canonical isoform): as the sequence (P00044 whole entry P77T, canonical isoform) above, with H39P, N58I, T77P counted along it
Cytochrome c isoform 1 C108A, P00044, sequence (P00044 whole entry C108A, canonical isoform): as the sequence (P00044 whole entry P77T, canonical isoform) above, with T77P, C108A counted along it
Cytochrome c isoform 1 G35S|N58I, P00044 G35S N58I, sequence (P00044 whole entry G35S/N58I, canonical isoform): as the sequence (P00044 whole entry P77T, canonical isoform) above, with G35S, N58I, T77P counted along it
Cold shock protein CspA wild type, P0A9X9, sequence (P0A9X9 whole entry): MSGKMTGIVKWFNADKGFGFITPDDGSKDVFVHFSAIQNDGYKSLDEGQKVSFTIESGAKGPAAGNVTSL
Creatine kinase B-type wild type, P12277, sequence (P12277 whole entry): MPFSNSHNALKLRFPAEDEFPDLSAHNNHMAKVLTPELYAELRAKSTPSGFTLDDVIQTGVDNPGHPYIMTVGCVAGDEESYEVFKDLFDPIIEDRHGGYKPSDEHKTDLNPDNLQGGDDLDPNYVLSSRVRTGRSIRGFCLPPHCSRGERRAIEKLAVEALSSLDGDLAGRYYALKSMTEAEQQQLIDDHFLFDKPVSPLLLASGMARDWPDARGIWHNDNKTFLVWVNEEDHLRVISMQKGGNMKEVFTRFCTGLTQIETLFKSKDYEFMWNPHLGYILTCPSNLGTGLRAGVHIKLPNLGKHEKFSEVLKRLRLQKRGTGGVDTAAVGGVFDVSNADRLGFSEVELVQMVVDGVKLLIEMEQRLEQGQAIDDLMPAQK
Cytochrome c V93A, P67881, sequence (P67881 whole entry V93A): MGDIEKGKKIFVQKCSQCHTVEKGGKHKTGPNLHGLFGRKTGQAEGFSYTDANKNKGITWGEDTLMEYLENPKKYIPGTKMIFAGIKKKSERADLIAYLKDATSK
Cytochrome c V93A|S104A, P67881 V93A S104A, sequence (P67881 whole entry V93A/S104A): as the sequence (P67881 whole entry V93A) above, with S104A counted along it
Endo-1,4-beta-xylanase wild type, Q56013, sequence (Q56013 entry or part of it): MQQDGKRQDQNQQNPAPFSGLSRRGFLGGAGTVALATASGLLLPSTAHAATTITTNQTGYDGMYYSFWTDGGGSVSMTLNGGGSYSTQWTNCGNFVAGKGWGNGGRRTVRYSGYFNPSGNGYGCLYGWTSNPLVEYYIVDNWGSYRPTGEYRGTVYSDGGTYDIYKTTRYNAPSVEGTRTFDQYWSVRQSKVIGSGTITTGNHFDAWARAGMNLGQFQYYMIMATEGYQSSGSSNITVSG
Cytochrome c wild type, P67881, sequence (P67881 whole entry): as the sequence (P67881 whole entry V93A) above, with A93V counted along it
Cytochrome c wild type, P00041, sequence (P00041 whole entry): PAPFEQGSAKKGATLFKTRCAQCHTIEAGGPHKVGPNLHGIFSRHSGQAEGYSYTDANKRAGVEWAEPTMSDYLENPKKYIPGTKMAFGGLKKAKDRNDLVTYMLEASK

As to AKKVLPLLLPPLVXAALGLAXF [wild type], under setting [1], the Tm was determined as 42.3 °C and the “unfolding enthalpy (calorimetric)” value worked out at 300 kcal/mol.
For the substance “APRLPQCQGDDQEKCLCNKDECPPGQCRFPRGDADPYCE [Decorsin wild type]”, the melting temperature (Tm) (Macrobdella decora, pH 7, Thermal, CD, Na2HPO4 10 mM, reversible: Yes, whole UniProt chain shown) is 74 °C.
As to Adenylate kinase D84H, P69441, the “ddG of mutation (higher = less stable)” value under setting [2] turned out to be 1.4 kcal/mol. Moreover, under setting [3], the melting temperature (Tm) worked out at 44.6 °C; the “change of melting temperature, mutant - wild type (higher = more stable)” value (shortened to “change of melting temperature, mutant”) is -7.2 °C; the “unfolding enthalpy (calorimetric)” value is 63 kcal/mol.
Take Adenylate kinase F86L, P69441: the “ddG of mutation (higher = less stable)” value under setting [2] amounted to 0.8 kcal/mol. Further, under setting [3], the melting temperature (Tm) is 49.2 °C; the “change of melting temperature, mutant” value was -2.6 °C; the “unfolding enthalpy (calorimetric)” value came to 97 kcal/mol.
The matching figures for Adenylate kinase G85V, P69441: 2.4 kcal/mol, 40.7 °C, -11.1 °C and 70 kcal/mol.
As for Adenylate kinase R88G, P69441, the “ddG of mutation (higher = less stable)” value (Escherichia coli (strain K12), pH 7.4, 51.8 °C, Thermal, DSC, HEPES 50 mM, structure 1ANK) was 0.2 kcal/mol. Also, under setting [4], the Tm stood at 51 °C; the “change of melting temperature, mutant” value is -0.8 °C; the “unfolding enthalpy (calorimetric)” value is 75 kcal/mol; the “unfolding enthalpy (van 't Hoff)” value came out at 161 kcal/mol.
As for Adenylate kinase wild type, P69441, under setting [5], the Tm was 51.8 °C and the “unfolding enthalpy (calorimetric)” value was determined as 95 kcal/mol. Besides, under setting [6], the Tm was 51.8 °C, the “unfolding enthalpy (calorimetric)” value was 95 kcal/mol and the “unfolding enthalpy (van 't Hoff)” value amounted to 158 kcal/mol.
For Archaeal histone B wild type, P48784, under setting [7], the denaturant m value came out at 3.4 kcal/mol/M; the unfolding free energy was 5.7 kcal/mol and 10.8 kcal/mol.
Consider “Cold shock protein CspA wild type, P0A9X9”, for which the denaturant m value was 0.59 kcal/mol/M under setting [8], 2.2 kcal/mol/M under setting [9], 0.71 kcal/mol/M under setting [10] and 0.71 kcal/mol/M under setting [11]. In addition, the “denaturant midpoint (higher = more stable)” value (“denaturant midpoint” for short) under setting [8] turned out to be 4.95 M, the “denaturant midpoint” value under setting [9] came to 1.4 M, the “denaturant midpoint” value under setting [10] was determined as 4.2 M and the “denaturant midpoint” value under setting [11] was found to be 4.2 M. Also, the unfolding free energy worked out at 2.92 kcal/mol under setting [8], 3.1 kcal/mol under setting [9], 3 kcal/mol under setting [10] and 3 kcal/mol under setting [11]. In addition, for the setting “Escherichia coli (strain K12), pH 7, Thermal, CD, potassium phosphate 50 mM, KCl 100 M, reversible: yes”, the Tm is 59 °C.
As to “Creatine kinase B-type wild type, P12277”, the Tm runs as follows: (Homo sapiens, pH 8, Thermal, CD, Tris-HCl, transition: 2, reversible: No) 47.3 °C; (Homo sapiens, pH 8, Thermal, Fluorescence, Tris-HCl, transition: 2, reversible: No) 45.7 °C.
For the substance Cytochrome c V93A, P67881, under setting [12], the “ddG of mutation (higher = less stable)” value amounted to 0.26 kcal/mol and the unfolding free energy was 4.91 kcal/mol.
In the case of “Cytochrome c V93A|S104A, P67881 V93A S104A”, under setting [12], the “ddG of mutation (higher = less stable)” value was 0.26 kcal/mol and the unfolding free energy was found to be 4.91 kcal/mol.
Cytochrome c isoform 1 C108A, P00044: under setting [13], the “ddG of mutation (higher = less stable)” value is -2.9 kcal/mol and the “heat capacity change of unfolding” value stood at 2 kcal/mol/K. For the same substance, under setting [14], the midpoint of thermal melting (Tm) came to 58.1 °C; the “change of melting temperature, mutant” value came out at 11.6 °C; the “heat capacity change of unfolding” value was 2 kcal/mol/K; the “unfolding enthalpy (van 't Hoff)” value was determined as 89 kcal/mol.
For the substance Cytochrome c isoform 1 C108S, P00044, under setting [13], the “ddG of mutation (higher = less stable)” value was -2.8 kcal/mol and the “heat capacity change of unfolding” value was determined as 2 kcal/mol/K. For the same substance, under setting [14], the midpoint of thermal melting (Tm) is 57.8 °C; the “change of melting temperature, mutant” value came to 11.3 °C; the “heat capacity change of unfolding” value stood at 2 kcal/mol/K; the “unfolding enthalpy (van 't Hoff)” value amounted to 87 kcal/mol.
Regarding “Cytochrome c isoform 1 G35S|N58I, P00044 G35S N58I”, under setting [13], the “ddG of mutation (higher = less stable)” value worked out at 1.5 kcal/mol and the “heat capacity change of unfolding” value amounted to 2 kcal/mol/K. Also, under setting [14], the Tm was 40.3 °C; the “change of melting temperature, mutant” value was -6.2 °C; the “heat capacity change of unfolding” value came to 2 kcal/mol/K; the “unfolding enthalpy (van 't Hoff)” value came out at 58 kcal/mol.
“Cytochrome c isoform 1 H32N|H39N|H45Q|C108S, P00044 H32N H39N H45Q C108S”: under setting [15], the “ddG of mutation (higher = less stable)” value amounted to 1.05 kcal/mol, the denaturant m value came to 3.83 kcal/mol/M, the “denaturant midpoint” value was 1.04 M and the unfolding free energy came out at 4 kcal/mol.
As to “Cytochrome c isoform 1 H39P|N58I, P00044 H39P N58I”, under setting [13], the “ddG of mutation (higher = less stable)” value worked out at 0.8 kcal/mol and the “heat capacity change of unfolding” value turned out to be 2 kcal/mol/K. Under setting [14], the Tm was 43.1 °C; the “change of melting temperature, mutant” value is -3.4 °C; the “heat capacity change of unfolding” value is 2 kcal/mol/K; the “unfolding enthalpy (van 't Hoff)” value was found to be 61 kcal/mol.
Take “Cytochrome c isoform 1 N58G|C108A, P00044 N58G C108A”: under setting [13], the “ddG of mutation (higher = less stable)” value is -0.9 kcal/mol and the “heat capacity change of unfolding” value was determined as 2 kcal/mol/K. Further, under setting [14], the Tm amounted to 50.1 °C; the “change of melting temperature, mutant” value turned out to be 3.6 °C; the “heat capacity change of unfolding” value was found to be 2 kcal/mol/K; the “unfolding enthalpy (van 't Hoff)” value was 50 kcal/mol.
As for Cytochrome c isoform 1 N58I, P00044, the unfolding free energy (Saccharomyces cerevisiae (strain ATCC 204508 / S288c), pH 4.6, 27 °C, GdnHCl, CD, Sodium acetate 50 mM, reversible: yes, structure 1YCC) is 6.8 kcal/mol and 18 kcal/mol. In addition, under setting [16], the “ddG of mutation (higher = less stable)” value is -3.14 kcal/mol and the unfolding free energy was found to be 7.17 kcal/mol. Besides, under setting [13], the “ddG of mutation (higher = less stable)” value was -4.3 kcal/mol and the “heat capacity change of unfolding” value was determined as 2 kcal/mol/K.
With “Cytochrome c isoform 1 N58I|C108A, P00044 N58I C108A”, under setting [13], the “ddG of mutation (higher = less stable)” value was -6.2 kcal/mol and the “heat capacity change of unfolding” value worked out at 2 kcal/mol/K. Besides, under setting [14], the midpoint of thermal melting (Tm) came to 71.5 °C; the “change of melting temperature, mutant” value was found to be 25 °C; the “heat capacity change of unfolding” value was determined as 2 kcal/mol/K; the “unfolding enthalpy (van 't Hoff)” value was 115 kcal/mol.
For Cytochrome c isoform 1 P77I, P00044, under setting [17], the “ddG of mutation (higher = less stable)” value came out at 1.7 kcal/mol, the “denaturant midpoint” value worked out at 0.72 M and the unfolding free energy was 1.9 kcal/mol.
For Cytochrome c isoform 1 P77T, P00044, under setting [17], the “ddG of mutation (higher = less stable)” value is 1.7 kcal/mol, the “denaturant midpoint” value was 0.72 M and the unfolding free energy came to 1.9 kcal/mol.
On to “Cytochrome c isoform 1 wild type, P00044”, for which the unfolding free energy by setting is: (Saccharomyces cerevisiae (strain ATCC 204508 / S288c), pH 4.6, 25 °C, Thermal, Absorbance, Sodium acetate 100 mM, reversible: yes) 5.3 kcal/mol; (Saccharomyces cerevisiae (strain ATCC 204508 / S288c), pH 4.6, 25 °C, Thermal, CD, Sodium acetate 100 mM, reversible: yes) 5.3 kcal/mol; (Saccharomyces cerevisiae (strain ATCC 204508 / S288c), pH 4.6, 27 °C, GdnHCl, CD, Sodium acetate 50 mM, reversible: yes) 5.6 kcal/mol and 15 kcal/mol; under setting [18], 3.6 kcal/mol; (Saccharomyces cerevisiae (strain ATCC 204508 / S288c), pH 6, 25 °C, Thermal, Absorbance, Sodium phosphate 100 mM, reversible: yes) 3.8 kcal/mol; under setting [19], 3.93 kcal/mol. For the same substance, under setting [20], the unfolding free energy is 5.05 kcal/mol. For the same substance, the “denaturant midpoint” value runs as follows: under setting [18], 1.07 M; under setting [19], 1.06 M; under setting [20], 1.19 M. Also, the denaturant m value under setting [19] stood at 3.71 kcal/mol/M and the denaturant m value under setting [20] is 4.24 kcal/mol/M.
Take Cytochrome c wild type, P00041: where the note is “Pichia kudriavzevii, pH 6.5, 25 °C, GdnHCl, CD, HCl 0.1 M, reversible: yes”, the unfolding free energy turned out to be 14 kcal/mol.
As to Cytochrome c wild type, P67881, the unfolding free energy under setting [12] was determined as 5.17 kcal/mol.
As to “Endo-1,4-beta-xylanase wild type, Q56013”, the midpoint of thermal melting (Tm) (Streptomyces sp. EC3, pH 6, Thermal, CD, Sodium phosphate 25 mM, reversible: no) came out at 56.8 °C and the melting temperature (Tm) (Streptomyces sp. EC3, pH 6, Thermal, Fluorescence, Sodium phosphate 25 mM, reversible: no) is 61.1 °C.

By Tm is commonly meant the temperature at which the thermal transition is half complete.
